Test results reported in patent publication US20240309103A1 (Regeneron, published 2024).

T1: human NPR1 extracellular domain expressed with a C-terminal mouse IgG2a (hNPR1-mFc) (human)
T1 construct: also called hNPR1-Fc; human NPR1 dimer
T1 chain: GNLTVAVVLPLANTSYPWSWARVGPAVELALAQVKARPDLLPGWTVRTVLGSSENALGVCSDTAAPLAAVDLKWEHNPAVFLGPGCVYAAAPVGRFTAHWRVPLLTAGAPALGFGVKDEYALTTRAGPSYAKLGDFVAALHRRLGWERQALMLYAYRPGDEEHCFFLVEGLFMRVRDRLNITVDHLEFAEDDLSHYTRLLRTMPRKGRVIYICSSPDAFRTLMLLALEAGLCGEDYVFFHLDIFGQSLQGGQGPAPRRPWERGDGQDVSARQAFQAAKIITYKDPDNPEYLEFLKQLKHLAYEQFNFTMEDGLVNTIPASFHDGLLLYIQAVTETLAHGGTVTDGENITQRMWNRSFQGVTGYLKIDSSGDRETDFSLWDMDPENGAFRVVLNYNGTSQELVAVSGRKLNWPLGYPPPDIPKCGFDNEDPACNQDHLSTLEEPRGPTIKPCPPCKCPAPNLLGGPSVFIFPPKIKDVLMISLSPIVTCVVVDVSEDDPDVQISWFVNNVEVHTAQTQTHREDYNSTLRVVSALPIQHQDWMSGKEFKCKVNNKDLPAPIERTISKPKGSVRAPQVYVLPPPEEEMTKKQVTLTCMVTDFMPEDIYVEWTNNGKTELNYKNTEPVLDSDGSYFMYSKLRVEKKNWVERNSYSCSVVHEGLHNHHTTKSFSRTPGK

T2: monkey NPR1 extracellular domain expressed with a C-terminal myc-myc-hexahistidine (mfNPR1-MMH) (monkey, UniProt P16066 33-473 (human entry))
T2 construct: also called monomeric monkey NPR1
T2 chain: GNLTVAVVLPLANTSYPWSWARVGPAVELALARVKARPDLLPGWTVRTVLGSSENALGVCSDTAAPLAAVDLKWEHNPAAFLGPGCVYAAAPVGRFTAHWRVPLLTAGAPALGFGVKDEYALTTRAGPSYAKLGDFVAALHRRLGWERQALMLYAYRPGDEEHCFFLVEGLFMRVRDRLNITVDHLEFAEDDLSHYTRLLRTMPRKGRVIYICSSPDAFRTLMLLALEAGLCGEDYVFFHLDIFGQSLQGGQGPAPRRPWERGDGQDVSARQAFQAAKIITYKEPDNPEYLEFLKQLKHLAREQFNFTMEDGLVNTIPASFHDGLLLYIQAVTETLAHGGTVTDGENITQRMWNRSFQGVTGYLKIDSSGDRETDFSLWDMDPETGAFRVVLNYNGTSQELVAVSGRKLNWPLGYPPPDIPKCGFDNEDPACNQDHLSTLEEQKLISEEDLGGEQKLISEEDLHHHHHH


Columns and labels:
[1] = molecular target: T3, human NPR1 extracellular domain expressed with a C-terminal myc-myc-hexahistidine (hNPR1-MMH) (human, UniProt P16066 33-473); assay: SPR, mAb captured, 37 C
T3 construct: also called hNPR.mmh; monomeric human NPR1
In short: (§1)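 Binding of NPR1 reagents to anti-NPR1 antibodies immobilized via anti-human Fc capture was measured by SPR in pH 7.4 HEPES/NaCl/EDTA/Tween buffer. Affinities are equilibrium KD values.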

[2] = molecular target: T1, human NPR1 extracellular domain …; assay: SPR, mAb captured, 37 C
In short: as §1

[3] = molecular target: T4, mouse NPR1 extracellular domain expressed with a C-terminal myc-myc-hexahistidine (mNPR1-MMH) (mouse, UniProt P18293 29-469); assay: SPR, mAb captured, 37 C
In short: as §1
Target sequence in this assay (P18293 other isoform, or with tags, fused parts or gaps): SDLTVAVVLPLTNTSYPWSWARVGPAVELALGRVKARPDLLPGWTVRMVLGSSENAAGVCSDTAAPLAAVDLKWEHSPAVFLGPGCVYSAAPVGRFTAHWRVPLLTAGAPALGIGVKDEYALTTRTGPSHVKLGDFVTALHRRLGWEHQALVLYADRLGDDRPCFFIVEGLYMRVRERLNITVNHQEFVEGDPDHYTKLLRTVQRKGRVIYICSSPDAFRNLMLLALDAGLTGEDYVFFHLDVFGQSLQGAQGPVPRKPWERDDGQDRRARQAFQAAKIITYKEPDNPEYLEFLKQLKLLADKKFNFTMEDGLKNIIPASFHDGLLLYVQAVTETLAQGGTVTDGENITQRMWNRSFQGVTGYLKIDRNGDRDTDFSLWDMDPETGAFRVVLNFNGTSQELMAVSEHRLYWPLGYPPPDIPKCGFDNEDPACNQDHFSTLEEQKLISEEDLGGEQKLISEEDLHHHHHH

[4] = molecular target: T2, monkey NPR1 extracellular domain …; assay: SPR, mAb captured, 37 C
In short: as §1

[5] = molecular target: T3, human NPR1 extracellular domain …; assay: SPR, mAb captured, 25 C
In short: as §1
Target sequence in this assay (P16066 other isoform, or with tags, fused parts or gaps): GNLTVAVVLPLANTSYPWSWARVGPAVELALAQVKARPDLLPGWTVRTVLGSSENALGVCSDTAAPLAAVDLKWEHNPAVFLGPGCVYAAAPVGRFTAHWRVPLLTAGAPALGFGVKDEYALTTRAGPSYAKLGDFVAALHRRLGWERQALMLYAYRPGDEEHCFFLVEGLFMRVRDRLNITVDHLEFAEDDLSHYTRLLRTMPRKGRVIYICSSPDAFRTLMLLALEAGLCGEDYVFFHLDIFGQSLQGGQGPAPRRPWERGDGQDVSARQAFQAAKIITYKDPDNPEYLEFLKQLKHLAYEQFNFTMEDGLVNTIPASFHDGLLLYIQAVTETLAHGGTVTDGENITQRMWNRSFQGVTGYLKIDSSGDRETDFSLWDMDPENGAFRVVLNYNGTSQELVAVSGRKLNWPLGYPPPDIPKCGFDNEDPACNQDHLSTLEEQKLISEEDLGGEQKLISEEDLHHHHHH

[6] = molecular target: T1, human NPR1 extracellular domain …; assay: SPR, mAb captured, 25 C
In short: as §1

[7] = molecular target: T4, mouse NPR1 extracellular domain …; assay: SPR, mAb captured, 25 C
In short: as §1

[8] = molecular target: T2, monkey NPR1 extracellular domain …; assay: SPR, mAb captured, 25 C
In short: as §1

Row | Binder | 100 nM Ag Bound (RU) [1] | Kd [1] | koff [1] | kon [1] | t½ [1] | 100 nM Ag Bound (RU) [2] | Kd [2] | koff [2] | kon [2] | t½ [2] | 100 nM Ag Bound (RU) [3] | 100 nM Ag Bound (RU) [4] | Kd [4] | koff [4] | kon [4] | t½ [4] | 100 nM Ag Bound (RU) [5] | Kd [5] | koff [5] | kon [5] | further results
1 | mAb22035 (antibody, V domains shown) VH: EVQLVESGGGLVQPGRSLRLSCAASGFTFDDYAMHWVRQAPGKGLEWVSGISWNSGTIGYADSVKGRFTMSRDNAKNSLYLQMNSLRPEDTALYYCAKDMGVSLALWGAFDIWGQGTMVTVSS VL: DIQMTQSPSSLSASVGDKVTITCRASQNIRTYLNWYQQKPGKAPKVLISTASSLQSGVPSRFSGSGSGTDFTLTISSLQPEDFAVFYCQQSFGIPRTFGQGTKVEIK | 284 RU | 1.3 nM | 0.000312 s⁻¹ | 240000 M⁻¹ s⁻¹ | 37.1 min | 257 RU | 0.2 nM | 0.000127 s⁻¹ | 636000 M⁻¹ s⁻¹ | 90.8 min | 1 RU | 319 RU | 0.702 nM | 0.000374 s⁻¹ | 532000 M⁻¹ s⁻¹ | 30.9 min | 210 RU | 0.738 nM | 0.00015 s⁻¹ | 203000 M⁻¹ s⁻¹ | t½ [5]: 77.3 min; 100 nM Ag Bound (RU) [6]: 198 RU; Kd [6]: 0.365 nM; koff [6]: 8.2e-05 s⁻¹; kon [6]: 225000 M⁻¹ s⁻¹; t½ [6]: 141 min; 100 nM Ag Bound (RU) [7]: 0 RU; binding result [7]: no binding (tested: 100 nM); 100 nM Ag Bound (RU) [8]: 245 RU; Kd [8]: 0.336 nM; koff [8]: 0.000143 s⁻¹; kon [8]: 426000 M⁻¹ s⁻¹; t½ [8]: 80.8 min
2 | mAb22033 (antibody, V domains shown) VH: QVQLVQSGAEVKKPGASVTVSCKASGYTFTDYYMHWVRQAPGQGLEWMGWIKPNSGGTNSAQRFQGRITMTWDTSISTAYMELSRLRSDDTAVYYCSRGGPVMNYYYYYGMDVWGQGTTVTVSS VL: NIQMTQSPSSLSASVGDRVTITCRASQSIDSYLNWYQQKPGKAPKLLIYVASSLQSGVPSRFSGSGSGKDFTLTISSLQPEDFATYYCQQSYSIPTFGQGTRLEIK | 52 RU | 136 nM | 0.000819 s⁻¹ | 6030 M⁻¹ s⁻¹ | 14.1 min | 75 RU | 3.56 nM | 0.000131 s⁻¹ | 36800 M⁻¹ s⁻¹ | 88.2 min | 1 RU | 131 RU | 27.8 nM | 0.000697 s⁻¹ | 25100 M⁻¹ s⁻¹ | 16.6 min | 30 RU | 47.5 nM | 0.000406 s⁻¹ | 8550 M⁻¹ s⁻¹ | t½ [5]: 28.4 min; 100 nM Ag Bound (RU) [6]: 56 RU; Kd [6]: 1.03 nM; koff [6]: 6.38e-05 s⁻¹; kon [6]: 61800 M⁻¹ s⁻¹; t½ [6]: 181 min; 100 nM Ag Bound (RU) [7]: 0 RU; binding result [7]: no binding (tested: 100 nM); 100 nM Ag Bound (RU) [8]: 79 RU; Kd [8]: 16.2 nM; koff [8]: 0.000291 s⁻¹; kon [8]: 17900 M⁻¹ s⁻¹; t½ [8]: 39.6 min
